Reference: IntAct's records for PubMed 29039417

B1: Protein PTHB1 (Homo sapiens), Q3SYG4 (parent)
chain: MSLFKARDWWSTILGDKEEFDQGCLCLANVDNSGNGQDKIIVGSFMGYLRIFSPHPAKTGDGAQAEDLLLEVDLRDPVLQVEVGKFVSGTEMLHLAVLHSRKLCVYSVSGTLGNVEHGNQCQMKLMYEHNLQRTACNMTYGSFGGVKGRDLICIQSMDGMLMVFEQESYAFGRFLPGFLLPGPLAYSSRTDSFLTVSSCQQVESYKYQVLAFATDADKRQETEQQKLGSGKRLVVDWTLNIGEQALDICIVSFNQSASSVFVLGERNFFCLKDNGQIRFMKKLDWSPSCFLPYCSVSEGTINTLIGNHNNMLHIYQDVTLKWATQLPHIPVAVRVGCLHDLKGVIVTLSDDGHLQCSYLGTDPSLFQAPNVQSRELNYDELDVEMKELQKIIKDVNKSQGVWPMTEREDDLNVSVVVSPNFDSVSQATDVEVGTDLVPSVTVKVTLQNRVILQKAKLSVYVQPPLELTCDQFTFEFMTPDLTRTVSFSVYLKRSYTPSELEGNAVVSYSRPTDRNPDGIPRVIQCKFRLPLKLICLPGQPSKTASHKITIDTNKSPVSLLSLFPGFASQSDDDQVNVMGFHFLGGARITVLASKTSQRYRIQSEQFEDLWLITNELILRLQEYFEKQGVKDFACSFSGSIPLQEYFELIDHHFELRINGEKLEELLSERAVQFRAIQRRLLARFKDKTPAPLQHLDTLLDGTYKQVIALADAVEENQGNLFQSFTRLKSATHLVILLIALWQKLSADQVAILEAAFLPLQEDTQELGWEETVDAAISHLLKTCLSKSSKEQALNLNSQLNIPKDTSQLKKHITLLCDRLSKGGRLCLSTDAAAPQTMVMPGGCTTIPESDLEERSVEQDSTELFTNHRHLTAETPRPEVSPLQGVSE
partner: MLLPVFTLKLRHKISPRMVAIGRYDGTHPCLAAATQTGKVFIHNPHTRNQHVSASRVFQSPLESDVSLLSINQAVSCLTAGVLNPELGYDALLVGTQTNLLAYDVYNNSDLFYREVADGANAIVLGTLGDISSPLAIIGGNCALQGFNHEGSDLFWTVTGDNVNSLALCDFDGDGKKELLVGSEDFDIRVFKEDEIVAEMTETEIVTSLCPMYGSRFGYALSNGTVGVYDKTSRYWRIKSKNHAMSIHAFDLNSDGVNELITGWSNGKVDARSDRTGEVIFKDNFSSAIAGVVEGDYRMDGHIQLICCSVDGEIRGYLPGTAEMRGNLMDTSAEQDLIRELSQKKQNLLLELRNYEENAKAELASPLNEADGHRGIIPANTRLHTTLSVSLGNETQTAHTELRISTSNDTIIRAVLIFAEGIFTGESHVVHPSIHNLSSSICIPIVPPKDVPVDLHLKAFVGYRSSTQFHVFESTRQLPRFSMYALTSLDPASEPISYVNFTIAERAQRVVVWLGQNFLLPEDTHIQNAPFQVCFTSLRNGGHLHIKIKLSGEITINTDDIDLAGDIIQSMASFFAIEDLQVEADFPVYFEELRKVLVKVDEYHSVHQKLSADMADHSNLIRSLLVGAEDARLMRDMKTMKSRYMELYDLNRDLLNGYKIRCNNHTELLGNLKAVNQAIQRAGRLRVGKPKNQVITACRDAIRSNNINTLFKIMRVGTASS
B2: Protein PTHB1 (Homo sapiens), Q3SYG4 (parent)
chain: B1 chain
partner: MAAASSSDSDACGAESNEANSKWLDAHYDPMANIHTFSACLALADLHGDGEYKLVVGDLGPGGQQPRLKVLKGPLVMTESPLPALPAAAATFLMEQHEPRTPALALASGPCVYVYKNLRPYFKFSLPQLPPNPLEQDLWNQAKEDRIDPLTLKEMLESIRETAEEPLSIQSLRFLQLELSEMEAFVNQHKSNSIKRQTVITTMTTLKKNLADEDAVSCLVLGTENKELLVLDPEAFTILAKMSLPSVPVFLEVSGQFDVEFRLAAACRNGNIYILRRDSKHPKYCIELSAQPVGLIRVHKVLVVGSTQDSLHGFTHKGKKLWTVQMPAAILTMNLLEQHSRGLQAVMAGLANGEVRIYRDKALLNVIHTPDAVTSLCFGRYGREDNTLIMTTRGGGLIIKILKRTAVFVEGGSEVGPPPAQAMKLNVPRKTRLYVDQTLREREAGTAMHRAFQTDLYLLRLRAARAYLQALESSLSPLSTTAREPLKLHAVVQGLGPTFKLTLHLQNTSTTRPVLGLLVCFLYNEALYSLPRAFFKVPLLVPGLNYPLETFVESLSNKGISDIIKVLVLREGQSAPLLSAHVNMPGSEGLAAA

Variants of: B1
Details: with bbs2_human BBS2, Q9BXC9

Row | Variant | effect of a mutation on the interaction
1 | E406K | with no effect
2 | E406A | with no effect
3 | V417A | with no effect
4 | V417E | with no effect
5 | V417K | with no effect
6 | T405E | with no effect
7 | T405A | with no effect
8 | T405K | with no effect
9 | V413A | with no effect
10 | V413K | with no effect
11 | V413E | with no effect
12 | R407E | with no effect
13 | R407K | with no effect
14 | R407A | with no effect
15 | N412E | with no effect
16 | N412K | with no effect
17 | N412A | with no effect
18 | L411K | with no effect
19 | L411A | with no effect
20 | L411E | with no effect
21 | D409A | with no effect
22 | D409K | with no effect
23 | D409E | with no effect
24 | V416E | with no effect
25 | V416A | with no effect
26 | V416K | with no effect
27 | P419A | with no effect

Row | Variant | effect of a mutation on the interaction
28 | P419E | with no effect
29 | P419K | with no effect
30 | D410E | with no effect
31 | D410K | with no effect
32 | D410A | with no effect
33 | F421K | with no effect
34 | F421A | with no effect
35 | F421E | with no effect
36 | S423E | with no effect
37 | S423A | with no effect
38 | S414E | with no effect
39 | S414K | with no effect
40 | S414A | with no effect
41 | S418A | with no effect
42 | S418K | with no effect
43 | S418E | with no effect
44 | E408A | with no effect
45 | E408K | with no effect
46 | V415A | with no effect
47 | V415K | with no effect
48 | V415E | with no effect
49 | D422E | with no effect
50 | D422K | with no effect
51 | D422A | with no effect
52 | N420K | with no effect
53 | N420E | with no effect
54 | N420A | with no effect

The next lines start with the values.

Row | effect of a mutation on the interaction | Variant
55 | with no effect | L436A
56 | with no effect | D429K
57 | with no effect | D429E
58 | with no effect | D429A
59 | with no effect | V432E
60 | with no effect | V432A
61 | with no effect | V432K
62 | with no effect | V430E
63 | with no effect | V430A
64 | with no effect | V430K
65 | with no effect | Q426A
66 | with no effect | Q426E
67 | with no effect | Q426K
68 | with no effect | T434A
69 | with no effect | T434E
70 | with no effect | T434K
71 | with no effect | V424A
72 | with no effect | V424E

Row | effect of a mutation on the interaction | Variant
73 | with no effect | V424K
74 | with no effect | A427E
75 | with no effect | A427K
76 | with no effect | T428E
77 | with no effect | T428K
78 | with no effect | T428A
79 | with no effect | S423K
80 | with no effect | D435E
81 | with no effect | D435K
82 | with no effect | D435A
83 | with no effect | S425K
84 | with no effect | S425A
85 | with no effect | S425E
86 | with no effect | G433K
87 | with no effect | G433A
88 | with no effect | G433E
89 | with no effect | E431K
90 | with no effect | E431A

Variants of: B2
Details: with bbs1_human BBS1, Q8NFJ9

Row | effect of a mutation on the interaction | Variant
91 | with no effect | R483E
92 | with no effect | G502K
93 | with no effect | G584K
94 | with no effect | F582E
